# Experimental data as given in US20050048606A1 (AGENCY FOR SCIENCE TECHNOLOGY AND RESEARCH, published 2005).
# B1: SPKR4NL1-2 (other)
# chain: MGHHHHHHHHHHSSGHIEGRHMSPKRSPKRSPKRSPKRGGTYLSEDELKAAEAAFKRHNPTGSCSVSVWVGDKTTATDIKGKEVMVLGEVNINNSVFKQYFFETKCRDPNPVDSG
# modifications: disulfide bridge intended between the added Cys and the Cys corresponding to C58 of NGF
# Molecular target: TrkA (rat (endogenous in PC12 rat …, UniProt P35739 33-799))
# Assay: cell-based or functional assay
# Chain of TrkA (rat (P35739 33-799): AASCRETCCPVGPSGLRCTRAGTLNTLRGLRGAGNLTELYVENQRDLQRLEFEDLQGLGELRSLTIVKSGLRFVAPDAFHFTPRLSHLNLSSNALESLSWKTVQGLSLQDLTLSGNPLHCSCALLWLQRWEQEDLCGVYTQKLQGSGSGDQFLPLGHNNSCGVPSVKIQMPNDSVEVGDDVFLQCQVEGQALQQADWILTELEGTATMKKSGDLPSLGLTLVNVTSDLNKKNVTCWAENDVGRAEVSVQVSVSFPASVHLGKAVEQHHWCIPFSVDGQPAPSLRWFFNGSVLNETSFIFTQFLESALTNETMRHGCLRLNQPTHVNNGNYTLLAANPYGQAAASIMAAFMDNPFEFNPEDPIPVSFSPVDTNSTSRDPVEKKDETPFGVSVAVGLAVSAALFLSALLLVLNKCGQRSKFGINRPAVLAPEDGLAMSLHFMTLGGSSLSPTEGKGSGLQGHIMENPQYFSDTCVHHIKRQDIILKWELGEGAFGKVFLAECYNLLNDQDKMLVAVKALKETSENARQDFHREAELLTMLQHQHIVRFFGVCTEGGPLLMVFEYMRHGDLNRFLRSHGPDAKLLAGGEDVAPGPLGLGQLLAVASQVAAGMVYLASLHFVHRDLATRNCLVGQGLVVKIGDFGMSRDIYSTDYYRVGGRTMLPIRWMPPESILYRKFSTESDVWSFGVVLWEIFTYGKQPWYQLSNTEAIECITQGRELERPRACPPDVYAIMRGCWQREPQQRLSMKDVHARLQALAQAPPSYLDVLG
binder,measurement,value
B1,"increase in gene expression in PC12 cells, SPKR4NL1-2 group against (SPKR)4 group (luciferase)",1400 fold
